According to paper PMC3223204, “Implantation Serine Proteinase 1 Exhibits Mixed Substrate Specificity that Silences Signaling via Proteinase-Activated Receptors” (PLoS ONE, 2011):
“Also recorded” adds a separate entry of the source.

What was measured:
Type in all cases: cell-based
[1] = system: rat PAR2-expressing KNRK cells; assay: P44/42 ERK/MAP kinase activation in rat PAR2-expressing KNRK cells; conditions: ISP1 for 10 min
Method: Western blot detection of P44/42 ERK was performed essentially as described. In brief, KNRK cells that had been transfected with the PAR2 expressing construct (PAR2 -KNRK) or empty vector (pcDNA3-KNRK) were serum starved and stimulated with ISP1 for 10 min. Cells were placed on ice and agonists were removed prior to lysis with cold lysis buffer (Roche). Protein samples were boiled for 10 min in Laemelis buffer and resolved on SDS-PAGE gels. Activation of MAP Kinase was monitored by immunoblotting with phospho-specific ERK antibodies (Cell signaling) and relative increases in ERK phosphorylation was quantified relative to total ERK signal detected in the same samples. As a positive control cells were activated with SLIGRL-NH2 that causes a PAR2-mediated increase in MAPkinase phosphorylation.

human PAR1 = target: T1, human PAR1 (Homo sapiens, UniProt P25116, INS26FLNCCPGCCMEPA); assay: Release of N-terminal BAB motif from PAR1 on COS-1 cells; conditions: 0.1 and 0.5 units per ml, 37°C, 30 minutes
T1 construct: expressed in transfected cells; host or cells: COS-1
T1 sequence (P25116 with tags, fused parts or gaps limits assumed): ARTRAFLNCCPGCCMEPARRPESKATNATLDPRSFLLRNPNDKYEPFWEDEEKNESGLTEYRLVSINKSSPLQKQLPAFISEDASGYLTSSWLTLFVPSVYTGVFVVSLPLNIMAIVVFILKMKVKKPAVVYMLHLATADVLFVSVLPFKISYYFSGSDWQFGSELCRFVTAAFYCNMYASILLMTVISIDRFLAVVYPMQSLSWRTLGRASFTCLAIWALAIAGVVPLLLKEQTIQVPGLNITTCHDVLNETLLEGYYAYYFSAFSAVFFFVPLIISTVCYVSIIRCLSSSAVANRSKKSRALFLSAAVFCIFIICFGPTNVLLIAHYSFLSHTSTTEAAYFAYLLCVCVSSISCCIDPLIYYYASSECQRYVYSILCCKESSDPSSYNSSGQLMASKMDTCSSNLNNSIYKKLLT
Text: (§1) The biarsenical fluorochrome binding domain (BAB), containing a tetra-cysteine motif, […] for PAR1, […] for PAR2 and […] for PAR4 was inserted into the receptor N-terminal domains by introducing corresponding oligonucleotides just downstream of the signal peptide of PARs, after A26 for human PAR1, Q27 for human PAR2 and V25 for human PAR4. The PAR DNA constructs containing the N-terminal BAB domain and a YFP C-terminal fluorochrome tag were cloned in pCDNA3.1+ at the restriction enzyme sites between Eco RI and Xba I. COS-1 cells obtained from ATCC (Manassas, VA USA) were transected with the PAR constructs with the FuGENE6 transfection reagent (Roche Applied Bioscience). The expression level of the expressed receptor was quantified using a fluorescence plate reader, (Victor 4X, Perkin-Elmer), and confocal microscopy was used to monitor the receptor location by visualizing the receptor YFP tag. […] Then, the peptide(s) containing the receptor BAB tetracysteine motif released by proteinases from the receptor N-terminus into the cell culture supernatant was quantified using a Victor X4 fluorescent plate reader with an excitation wavelength of 540 nm and an emission wavelength monitored at 615 nm. […]

human PAR2 = target: T2, human PAR2 (Homo sapiens, UniProt P55085); assay: Release of N-terminal BAB motif from PAR2 on COS-1 cells; conditions: 0.1 and 0.5 units per ml, 37°C, 30 minutes
T2 construct: expressed in transfected cells; host or cells: COS-1
T2 sequence (P55085 with tags, fused parts or gaps limits assumed): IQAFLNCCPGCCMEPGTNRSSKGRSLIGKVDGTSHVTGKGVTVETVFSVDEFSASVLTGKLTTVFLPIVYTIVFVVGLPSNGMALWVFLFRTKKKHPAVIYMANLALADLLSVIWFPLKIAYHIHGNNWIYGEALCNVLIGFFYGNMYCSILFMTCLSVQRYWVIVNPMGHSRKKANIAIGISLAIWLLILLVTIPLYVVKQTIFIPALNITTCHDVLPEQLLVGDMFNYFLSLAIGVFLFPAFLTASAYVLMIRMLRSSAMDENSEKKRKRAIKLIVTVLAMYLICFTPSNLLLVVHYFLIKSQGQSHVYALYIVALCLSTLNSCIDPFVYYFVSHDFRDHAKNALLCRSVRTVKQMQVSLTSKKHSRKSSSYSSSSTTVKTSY
Text: as §1

B1: ISP1: recombinant implantation serine proteinase 1 expressed in Pichia pastoris, also known as Mouse Prss28 (protein, UniProt Q924N9 27-274, looked up)
Serine protease 28: KPVGIVGGQRTPPGKWPWQVSLRMYSYEVNSWVHICGGSIIHPQWILTAAHCIQSQDADPAVYRVQVGEVYLYKEQELLNISRIIIHPDYNDVSKRFDLALMQLTALLVTSTNVSPVSLPKDSSTFDSTDQCWLVGWGNLLQRVPLQPPYQLHEVKIPIQDNKSCKRAYRKKSSDEHKAVAIFDDMLCAGTSGRGPCFGDSGGPLVCWKSNKWIQVGVVSKGIDCSNNLPSIFSRVQSSLAWIHQHIQ
modifications: recombinant, Pichia pastoris-expressed
notes: recombinant implantation serine proteinase 1 expressed in Pichia pastoris, also known as Mouse Prss28
Phosphorylation status of ERK via MAP kinase activation [1]: No change in phosphorylation status of ERK; also recorded: No activation of ERK
Release of PAR1 N-terminal BAB domain (PAR cleavage activity) (human PAR1): significant concentration-dependent PAR cleavage activity
Release of PAR2 N-terminal BAB domain (PAR cleavage activity) (human PAR2): significant concentration-dependent PAR cleavage activity
